Source: patent US6673915

Biological target: CC CKR2B stably expressed on HEK-293 cells (Example 10A) (human) (UniProt P41597)
Test: cell-based or functional assay

Sequence of CC CKR2B stably expressed on HEK-293 cells (Example 10A) (human) (P41597 whole entry): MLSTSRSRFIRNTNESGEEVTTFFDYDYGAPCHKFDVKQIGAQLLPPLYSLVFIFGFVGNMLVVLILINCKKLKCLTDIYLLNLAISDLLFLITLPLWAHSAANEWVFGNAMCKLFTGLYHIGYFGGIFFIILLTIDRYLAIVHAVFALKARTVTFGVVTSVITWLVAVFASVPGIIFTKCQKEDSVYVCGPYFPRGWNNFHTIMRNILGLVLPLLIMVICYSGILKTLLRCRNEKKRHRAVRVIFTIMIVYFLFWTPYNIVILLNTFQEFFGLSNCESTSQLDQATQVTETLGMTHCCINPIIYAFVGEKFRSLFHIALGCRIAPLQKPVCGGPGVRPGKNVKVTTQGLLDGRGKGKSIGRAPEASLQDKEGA
Sequence of recombinant human MCP-4 with the mature N-terminal Gln (PeproTech), Q99616 24-98 (ligand) (Q99616 24-98): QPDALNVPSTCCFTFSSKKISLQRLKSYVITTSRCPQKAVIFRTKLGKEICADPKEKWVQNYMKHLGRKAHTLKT

recombinant human MCP-4 with the mature N-terminal Gln (PeproTech), Q99616 24-98 (ligand)
half-maximal effective concentration of calcium flux: 15 nM
saturation of calcium flux response: 100 nM
